Data on one substance can be found in article PMC3916842.

Test [1] has as its target talin (human) (UniProt Q9Y490). Nature of the test: TIRF microscopy of recruitment to a protein-micropatterned surface.
The target of test [2] is talin (human) (UniProt Q9Y490). Nature of the test: FRAP on a spinning disk confocal microscope.
For test [3], the target named is talin (human) (UniProt Q9Y490). Nature of the test: FRAP on a TIRF microscope.

As to “EGFP-vinculin 1-851 (Vh) (from UniProt P18206 1-851) (domain or fragment)”, the koff in the test with talin (human) [1] was 0.0034 s⁻¹; with talin (human) [2], 0.0029 s⁻¹; with talin (human) [3], 0.0033 s⁻¹.

What is called koff is a measure of how fast the partners let go of each other. Lower therefore signals a long-lived complex.
